Assay results as given in patent US20140302123A1.

B1: GluN2A-16 (peptide)
peptide: SNRRVYKKMPSIESDV
modifications: not checked
B2: GluD2-13 (peptide)
peptide: LNLGNDPDRGTSI
modifications: not checked
B3: EIRL-13 (peptide)
peptide: SWESYRSGGEIRL
modifications: not checked

How the values were obtained:
[1] = target: T1, PTPN4-PDZ (residues G499-N604) (human), P29074; experiment: NMR titration, 15N-labeled PTPN4-PDZ with unlabeled peptide
T1 chain: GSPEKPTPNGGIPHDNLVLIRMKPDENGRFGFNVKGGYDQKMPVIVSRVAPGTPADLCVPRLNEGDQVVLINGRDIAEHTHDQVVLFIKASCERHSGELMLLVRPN

[2] = target: T1, PTPN4-PDZ (residues G499-N604) (human), …; experiment: NMR titration

| Binder | Kd [1] [µM] | fold increase in affinity against Cyto13-att [2] [fold] |
| --- | --- | --- |
| B1 | 42 | 4 |
| B2 | 128 | – |
| B3 | 1170 | – |
